Measurements taken from PMC4072690 (PLoS ONE, 2014).

Tests used:
[1] = target: T1, Francisella tularensis SchuS4 recombinant GroEL with N-terminal His tag (Francisella tularensis subsp. …, UniProt Q5NEE1); experiment: ELISA; conditions: one partner purified
T1 construct: source: E. coli BL21(DE3)pLysS, pET14b, IPTG induced, in BugBuster lysate; not shown: His6, N-terminal, kept

[2] = target: Francisella tularensis LVS recombinant GroEL with N-terminal His tag (Francisella tularensis subsp. …, UniProt P94798, strain); experiment: ELISA; conditions: one partner purified
[3] = target: T2, GroEL of Francisella tularensis SchuS4, endogenous (Francisella tularensis subsp. …, UniProt Q5NEE1); experiment: ELISA; conditions: one partner purified
T2 construct: source: endogenous, SchuS4 NP40 lysate

[4] = target: T3, purified FtGroEL used in the DXMS experiments (Francisella tularensis, strain not …, UniProt Q5NEE1); experiment: HDX-MS; conditions: both partners purified
T3 construct: copies: 14

[5] = target: T4, Escherichia coli GroEL, endogenous (Escherichia coli TG1 (K-12) and BL21, UniProt P0A6F5); experiment: Western blot; conditions: one partner purified
T4 construct: also called EcGroEL

[6] = target: GroEL of Francisella tularensis LVS, endogenous (Francisella tularensis subsp. …, UniProt P94798, strain); experiment: competition Western blot; conditions: one partner purified
[7] = target: T4, Escherichia coli GroEL, endogenous; experiment: ELISA; conditions: one partner purified
[8] = target: T1, Francisella tularensis SchuS4 …; experiment: Western blot; conditions: one partner purified

B1: Ab53 mouse monoclonal antibody (IgG2a,κ) specific for FtGroEL (antibody, V domains shown)
VH: EVKLLESGGGLVQPGGSMKLSCVASGFTFSIFWMNWVRQSPEKGLEWVAEVRLKSNNYATHYAESVKGRFTISRDDSKSGVYLQMNNLRAEDTGIYYCTRGYYGSNYGEYWGQGTTLTVSS
VL: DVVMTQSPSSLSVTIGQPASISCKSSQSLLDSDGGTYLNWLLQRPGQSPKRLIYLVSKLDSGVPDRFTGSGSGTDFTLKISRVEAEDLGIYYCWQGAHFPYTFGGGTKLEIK
notes: also called Ab53 IgG
binding result [1]: binds
binding result [2]: binds
binding result [3]: binds
binding result [4]: binds
binding result [5]: binds
binding result [6]: binds

B2: Ab64 mouse monoclonal antibody (IgG2a,κ) specific for FtGroEL (antibody, V domains shown)
VH: EVQLLESGPELVRLGASVKVSCKASGYSFTDYNMYWVKQSHGKSLEWIGYIDPYNGDASYNQKFKGKATLTVDKSSSTAFMHLNSLTSEDSAVYYCARTGYYYGRSYAMDYWGQGTSVTVSS
VL: DIVMTQAAPSVPVTPGESVSISCRSSKSLLHSNGNTYLYWFLQRPGQSPQLLIYRMSNLASGVPDRFSGSGSGTAFTLRISKVEAEDVGVYYCMQHLEYPYTFGGGTKLDVK
notes: also called Ab64 IgG
binding result [7]: no binding
binding result [2]: binds
binding result [3]: binds
binding result [4]: binds
binding result [8]: binds
binding result [6]: binds

B3: Ab53 Fab (Fab, V domains shown)
VH: EVKLLESGGGLVQPGGSMKLSCVASGFTFSIFWMNWVRQSPEKGLEWVAEVRLKSNNYATHYAESVKGRFTISRDDSKSGVYLQMNNLRAEDTGIYYCTRGYYGSNYGEYWGQGTTLTVSS
VL: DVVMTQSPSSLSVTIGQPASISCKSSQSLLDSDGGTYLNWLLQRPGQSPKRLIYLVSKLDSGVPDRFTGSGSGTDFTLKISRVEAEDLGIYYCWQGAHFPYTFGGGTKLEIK
notes: also called Fab fragment of Ab53; source: cleavage of purified Ab53 IgG with the Pierce Fab Preparation Kit
binding result [4]: binds

B4: Ab64 Fab (Fab, V domains shown)
VH: EVQLLESGPELVRLGASVKVSCKASGYSFTDYNMYWVKQSHGKSLEWIGYIDPYNGDASYNQKFKGKATLTVDKSSSTAFMHLNSLTSEDSAVYYCARTGYYYGRSYAMDYWGQGTSVTVSS
VL: DIVMTQAAPSVPVTPGESVSISCRSSKSLLHSNGNTYLYWFLQRPGQSPQLLIYRMSNLASGVPDRFSGSGSGTAFTLRISKVEAEDVGVYYCMQHLEYPYTFGGGTKLDVK
notes: also called Fab fragment of Ab64; source: cleavage of purified Ab64 IgG with the Pierce Fab Preparation Kit
binding result [4]: binds
